Reference: the DeepSol protein solubility set

Experiment: soluble on expression in E. coli; label from the status in PepcDB or PDB records

Sequence | soluble on expression in E. coli
MLILDYTKLKVTFMTMHHPNLQQHDRPQAISRSYLDIRHVVKQFGSFTALKEISLSIEKGEFVCFLGPSGCGKTTLLRAIAGLDLPTSGTIHQNQQAITFLPPEQRDFGIVFQSYALFPNLTVEENIAIGLRNQGMSVRDALEKVEQWLEMIGLATSAQKYPSQLSGGQQQRVALARALALSPGLLLLDEPLSALDAKVRTHLREEICQLQRKLGITTIMVTHDQEEALTMADRIVVMNHGVIEQVGTPQEIYQKPASRFVAEFVGTMNFIPVSMASSQQLRIAESLIALPKIENYTPCQGEQFDLAVRPENLELVTRYNEAIPVVIRHLEFLGAFYRVECVFQGERLAPPVYVDLPITQVQTMNLKAGDVRYLALRAGQLRAYRRKVMSTTPAATASCAYAA | not soluble
MLILGIDTSTKICTCSIFDSENGVIAETSLSVKKNHSNIVMPIIDNLFKISDLTINDIDKIAVAIGPGSFTGVRIALGIAKGLAMALNKPLIAINELDILEAIASGNENEIIPLIDARKERVYYKYQNKYVDDYLINLTSNFDKNKKYIFVGDGAINYKNILKDNLGENAIILPMYNSFPRASILCELALNKEEANIYTLEPEYISKSRAEKHFLEHHHHHH | soluble
MLILSTEKEPNFEYEEITRSFLSNMLAFTRGHFTGDISHFSPIVLAEMEKDPNWLEEAAGGMQGVIVQSLLEDENFSSVEQLKGELARLIRLYFALAKDNLTENQESLYVDLFDKFTFLLLCSDEFIMYLDSQPKF | soluble
MLIRPNKVQKVGNLFMDTVHEEEIRLLNQLYDTLMKKDVEKADQLMDELLVDLEDHFTTEEELMREFEFFAYPMHKAEHDTMRKRFKEVYDKWKKEKNPEEVVRFLKEEFVPWLKSHVARWDSTTAQQLGD | not soluble
MLKCAVDEAAGGRAQAFVSSGDNIGGSPFQSSILGDEPTLEALNQMGLDYSAVGNHEFDKGYADLSSRVADLADFDYLGANVEGENPDLAPYGISHLDGVKVAFVGTVSQETPMLVNSEGIEGITFTDPLEATNRVADELVGSGAADVVVALYHEGITGTEAWSENIDVVFAGHTH | not soluble
MLKKIREEFGCIFARDPAAQSFFEILTVYPGVHAVLIHRFSHWLWNHGLHWPARVLSYLARWATGIEIHPGATLGRRLFIDHGMGVVIGETAVIGDDCTLYHGVTLGGTSWQKGKRHPTLGNGVVVGAGAKVLGPITVGDGARIGSNSVVLRTVPAGATVVGIPGHIINPDRRAQEAQRLAIASRLGFDAYGMTPDMPDPVAHAINHMLDHIQALDQQVAKLKEVLRERGIDLEEAPLPDLDDCQLDPGEPQVTVNSSRTGLEHHHHHH | soluble
MLKKLKNFILFSSIFSPIAFAISCSNTGVVKQEDVSVSQGQWDKSITFGVSEAWLNKKKGGEKVNKEVINTFLENFKKEFNKLKNANDKTKNFDDVDFKVTPIQDFTVLLNNLSTDNPELDFGINASGKLVEFLKNNPGIITPALETTTNSFVFDKEKDKFYVDGTDSDPLVKIAKEINKIFVETPYASWTDENHKWNGNVYQSVYDPTVQANFYRGMIWIKGNDETLAKIKKAWNDKDWNTFRNFGILHGKDNSSSKFKLEETILKNHFQNKFTTLNEDRSAHPNAYKQKSADTLGTLDDFHIAFSEEGSFAWTHNKSATKPFETKANEKMEALIVTNPIPYDVGVFRKSVNQLEQNLIVQTFINLAKNKQDTYGPLLGYNGYKKIDNFQKEIVEVYEKAIK | soluble
MLKQTFLLSALLFGLSACQSTDVAKQDTVPLQGSWHIEAVQGQPTVDYSPAQITFDAEGKISGNNSCNNFFGQYSQQGQELKIIPGGSTMKACVDALMQQEHKVMQALPLVAKAKLVEGRLTLLSSDDKAVFVLSQLK | soluble
MLKRTRSLVCLCLAAAISSPTTYANSIDLPDIGTAAGGTLSIDQELIYGDAYMRMLRASKPIVNDPVINEYIDSLGHRLVANANDVKTPFHFFMIRDRNINAFAFFGGYVALHSGLFLHARSESELASVVAHEIAHVTQRHLARSMEDQARRSPATLAALAGALLLSIASPEAGMAAITAATAGNMQSQINYTRSNEKEADRFGIATLAKAGFDVQAMPRFFGRLADEYRYASKPPPMLLTHPLPEDRVADSRQRAQAYPPMRIAPSIDYHLARARIVARYAGIDGQAALGWFERTQKKASADIMPSFDYGRALVHLDNKRLSQAEPILKKLLAQDPGNPFYLDAMTDLYIEKKQPQKAVELLNSALKRNPQNKVLTINYANALLEANQNDQAVRTLQRYTHDNPEDSNGWQLLSKGYHALGRSDEELAARAEILALRANWNKAIQYYSEASKMAELGSLEQARYDARIDQLMIQRDRFMALQLEHHHHHH | soluble
MLKSVLDALENGRLVELPDNDKSDALQFLATILEAVPSIPAGSNIVEIVLEHEKNSNTSLGFGWACPHARVNFDGDLCCAIGWSPAGIDYGIAGEPLVRLVVMFFVPENQRNTYLKEVSTLARVLKSNPEFQNLEPIGDLDQVRNTLLDMTHQAMSEGGKNYRARMIQLDTLTKSAGDAGHYWLKGMQIDALLVVAGPDIKPLVLSQNAELSRLATQDTQLVPAIASGNHYELQGWQIVRRSSTAYAGERVIYDCLAIKTRQGQGAPEAGG | soluble
MLLDKLSRPLKVLRISLTDRCNLRCNFCMPPGKEYNFLPKRQLLTPEEIEEYVKIFAKLGVEKVRLTGGEPLLREDLEEIIQRISKVEGIKDIALTTNGVFLKERLKALKEAGLKRITVSVHSLNPEKNQKLVNRSVNLGEVFEVIIRAKELGFKVKVNSVIIKGFNDDEILDLARFFKNLGVTLRFIEYMDVGTVNDWDFSKVVSADEILNLMKKEFTFYPLPKRPEDTSMDFIYEDGNKFGIIASVTKPFCRGCNRIRLSADGKLYTCLFSDKGHDLRNAVDKENFIKEVWKDRKDRYSELRRQMKRERKVEMFKVGGLEHHHHHH | not soluble
MLLDKLSRPLKVLRISLTDRCNLRCNFCMPPGKEYNFLPKRQLLTPEEIEEYVKIFAKLGVEKVRLTGGEPLLREDLEEIIQRISKVEGIKDIALTTNGVFLKERLKALKEAGLKRITVSVHSLNPEKNQKLVNRSVNLGEVFEVIIRAKELGFKVKVNSVIIKGFNDDEILDLARFFKNLGVTLRFIEYMDVGTVNDWDFSKVVSADEILNLMKKEFTFYPLPKRPEDTSMDFIYEDGNKFGIIASVTKPFCRGCNRIRLSADGKLYTCLFSDKGHDLRNAVDKENFIKEVWKDRKDRYSELRRQMKRERKVEMFKVGGMGHHHHHHSH | soluble
MLLELPATNSALAIKSVLMAMTPNNDAILVVGERGHIINWQNDDNWQQLQSPVSVAITDVTILSDGSKVAVGHDGVILKVDSNSTTWRKVFTGKEITQFQIAQLKQQYQSLEQVILQTQDEDELEELTYQLDDLTFAIEDNQLELKSGPNKPLLSVTSTSNDTLFASGAYGILLSSKDKGETWQLVSNHLDNPDRFHLNTVIATADDQLYIVGENGMGFHSTDVGQTWSVMTLPYSGSLFGILANTVKTHTISTDDINSTKNKTQLVAFGLQGNIMVSLDGGGNWQHIKLPRSTSLLGGNFSKQGKVYLVGHGGVIVSFYPENLSTLTIKKHPSGAALSSVLVKDNSLILAGQFGISQWPIEAEELEHHHHHH | not soluble
MLLGYCGSGYYGMQYNPPHKTIEGEILTKLFDVGAISEENSLAPKKNSFMAAARTDKGVHAMLNLLSLKITLREDTVAKLNAALPPEIRVWGIQPVNKKFNARSACDSRWYQYLIPEFILIGPPRSSLLHRNVGGCYREDGSQEVWDTFLEQTRGRFSGDELCRLQDTAQKLSESDPLVQDYVGLLSGTLSGYCLSPSKLDAFEAAMQEYVGTHNFHNFTTGKLWGDPSAQRHIKKVVVSQASPGWICVRIHGQSFMLHQIRRMVALAVLAARCQLPPNIVRNYFNAGPRKYIPRAPAQGLLLEGPVFDGYNTKLRNLLYCEIRPDDITLERMCRFRERQICTAIAHEETQRHVFCHFVRQMNRLATPLI | not soluble
MLLKGLYKVEFETPRRKAVGVIFASDGRLHGGSSAFAYIGAYEQQGQTIQGTITARRHTSDPAIQSVFGVDEVRVDFHGSTIGDYAQVEGMAAEAPSLGFKALLTRISQ | not soluble
MLLSGERIDQLYADDIQIIQSKEVFSFSIDAVLLANFPQLPKKGKIVDLCAGNGAVGLFVSRKTAAKIDQIELQPRLADMGQRSILLNKLEKQVTMYERDLKQATEVIKKDSVDLVLCNPPYFKERPTSQKNPNPHLAIARHEIHTSLQEVVTVSADLLKTNGRLAMVHRPDRFLDILHAMENANIAPKKARFVYPKPGKEANVLLIEGIKQGKKDGFRVLPPLFTYNEKNEYEAEMKAMLYGE | not soluble
MLMFTEKEFAAFEVAGLDERMAVIRAQIQPIFQELDTYFAEQLAPELGTELFVHIAQHRRRTVYPPENTWSALSPNKRGYKMQPHFQLGIWGDYVFMWLSFIDNPKNEKQIAQAFLENQQLFQALPEDTYVSLDHTVPQITPLPETDLEKALTRFRDVKKGEFEIGRIIPKDSDLWQNPEKARAYMLATYQQLLPLYQLAVAQ | not soluble
MLNEIICAGFGGQGVLTAGKIIMYVAYKAEKKITWFPSYGNEMRGGSANCNVVVSDEKIANPCVKNPDILLGMNSVSVDKYESLMKKNGYMFVNESLVSKDRKYREDINVIKVPVTEIAQNLGNEKAANICMLGAMVKSLDLFTKEEFESGMCEYFENQGKGKFNSKNVEAFEAGYDYE | not soluble
MLNPLRALTLGGLLLFSTLGHAAPAAPDALRIGYQKGSVSMVLAKSHQLLEQRYPQTHISWIEFPAGPQMLEALNVGSIDIGSTGDIPPIFAQAAGADLVYIGAEPPKPKAEVILVAQGSPIHNVAELKGKKVAFQKGSSSHNLLLRALQLAGLKFSDIQPVYLAPADARAAFQQGNVDAWAIWDPYYSAALLQGGARVLTDGTDLKQTGSFYLASRPYAERNGAFIEGVLDTFTQADALTHSQRAQSITLLAKTMGLPEAVIASYLDHRPPTAVTPVSAETAARQQQTADLFYENKLVPKKVDIRARIWQPTATQGAKS | not soluble
MLNQELELSLNMAFARAREHRHEFMTVEHLLLALLSNPSAREALEACSVDLVALRQELEAFIEQTTPVLPASEEERDTQPTLSFQRVLQRAVFHVQSSGRNEVTGANVLVAIFSEQESQAAYLLRKHEVSRLDVVNFISHGTRKDEPTQSSDPGSQPNSEEQAGGEERLENFTTNLNQLARVGGIDPLIGREKELERAIQVLCRRRKNNPLLVGESGVGKTAIAEGLAWRIVQGDVPEVMADCTIYSLDIGSLLAGTKYRGDFEKRFKALLKQLEQDTNSILFIDEIHTIIGAGAASGGQVDAANLIKPLLSSGKIRVIGSTTYQEFSNIFEKDRALARRFQKIDITEPSIEETVQIINGLKPKYEAHHDVRYTAKAVRAAVELAVKYINDRHLPDKAIDVIDEAGARARLMPVSKRKKTVNVADIESVVARIARIPEKSVSQSDRDTLKNLGDRLKMLVFGQDKAIEALTEAIKMARAGLGHEHKPVGSFLFAGPTGVGKTEVTVQLSKALGIELLRFDMSEYMERHTVSRLIGAPPGYVGFDQGGLLTDAVIKHPHAVLLLDEIEKAHPDVFNILLQVMDNGTLTDNNGRKADFRNVVLVMTTNAGVRETERKSIGLIHQDNSTDAMEEIKKIFTPEFRNRLDNIIWFDHLSTDVIHQVVDKFIVELQVQLDQKGVSLEVSQEARNWLAEKGYDRAMGARPMARVIQDNLKKPLANELLFGSLVDGGQVTVALDKEKNELTYGFQSAQKHKAEAAH | soluble
